{
  "source": "the RNAGym collection of RNA variant scans (doi:10.7554/elife.80360)",
  "parents": {"B1": {"name": "Hairpin Ribozyme (parent)", "chain": "GUCCUCUUUCACGUGCGCGUGAAAGAGAGAAGUGAACCAGAGAAACACACGUUGUGGUAUAUUACCUGGUA"}},
  "data": [
    {"variants_of": "B1", "experiment": "self-cleavage, relative activity (ratio to wild type); higher = more cleavage; co-transcriptional", "values": [
      {"variant": "A11U G32C", "self-cleavage": 0.144},
      {"variant": "A11G U63A", "self-cleavage": 0.116},
      {"variant": "G13A A43G", "self-cleavage": 0.0659},
      {"variant": "C12G A36U", "self-cleavage": 0.517},
      {"variant": "C12A U60G", "self-cleavage": 0.459},
      {"variant": "C12A U60C", "self-cleavage": 0.893},
      {"variant": "C12A U60A", "self-cleavage": 0.621},
      {"variant": "C12A A49U", "self-cleavage": 0.256},
      {"variant": "C12A A49G", "self-cleavage": 0.474},
      {"variant": "C12U A41U", "self-cleavage": 0.928},
      {"variant": "C12G A49C", "self-cleavage": 0.196},
      {"variant": "C12A A64G", "self-cleavage": 0.411},
      {"variant": "C12A A64C", "self-cleavage": 0.101},
      {"variant": "C12A C66A", "self-cleavage": 0.259},
      {"variant": "C12A C66G", "self-cleavage": 0.208},
      {"variant": "C12U C65A", "self-cleavage": 0.88},
      {"variant": "C12U C65G", "self-cleavage": 0.2},
      {"variant": "C12U C65U", "self-cleavage": 0.348},
      {"variant": "C12A A59U", "self-cleavage": 0.176},
      {"variant": "C12A A59C", "self-cleavage": 0.149},
      {"variant": "G13A G57A", "self-cleavage": 0.175},
      {"variant": "G13A G57C", "self-cleavage": 0.164},
      {"variant": "A11U A30U", "self-cleavage": 0.133},
      {"variant": "C12U A30G", "self-cleavage": 0.173},
      {"variant": "C12G A41U", "self-cleavage": 1.25},
      {"variant": "G13A A71U", "self-cleavage": 0.746},
      {"variant": "G13A A35C", "self-cleavage": 0.739},
      {"variant": "C12A A28C", "self-cleavage": 0.531},
      {"variant": "C12A A28G", "self-cleavage": 0.836},
      {"variant": "C12A C16A", "self-cleavage": 0.964},
      {"variant": "C12G C38G", "self-cleavage": 0.142},
      {"variant": "C12G C38A", "self-cleavage": 0.148},
      {"variant": "C12A A22C", "self-cleavage": 0.575},
      {"variant": "A11U G19A", "self-cleavage": 0.79},
      {"variant": "A11U G19C", "self-cleavage": 0.687},
      {"variant": "C12A A61G", "self-cleavage": 0.174},
      {"variant": "C12G G27C", "self-cleavage": 0.226},
      {"variant": "C12A A26C", "self-cleavage": 0.393},
      {"variant": "G13A A30U", "self-cleavage": 0.113},
      {"variant": "G13A A30C", "self-cleavage": 0.0871},
      {"variant": "A11G G19U", "self-cleavage": 0.979},
      {"variant": "A11U U67G", "self-cleavage": 0.287},
      {"variant": "C12A G69U", "self-cleavage": 0.251},
      {"variant": "C12A G69C", "self-cleavage": 0.275},
      {"variant": "A11U A71U", "self-cleavage": 0.701},
      {"variant": "A11G U20G", "self-cleavage": 0.982},
      {"variant": "A11G U20C", "self-cleavage": 0.857},
      {"variant": "G13A C50A", "self-cleavage": 0.284},
      {"variant": "A11G G13A", "self-cleavage": 0.924},
      {"variant": "A11U A61G", "self-cleavage": 0.176},
      {"variant": "A11U A44G", "self-cleavage": 0.144},
      {"variant": "A11U A44U", "self-cleavage": 0.22},
      {"variant": "C12A G21U", "self-cleavage": 0.752},
      {"variant": "C12A G21C", "self-cleavage": 0.808},
      {"variant": "C12U A35U", "self-cleavage": 0.743},
      {"variant": "C12U G69C", "self-cleavage": 0.367},
      {"variant": "C12U G69A", "self-cleavage": 0.406},
      {"variant": "C12U G69U", "self-cleavage": 0.153},
      {"variant": "G13A G25A", "self-cleavage": 0.484},
      {"variant": "A11G G29A", "self-cleavage": 0.101},
      {"variant": "C12U U14C", "self-cleavage": 1.05},
      {"variant": "A11G G15A", "self-cleavage": 0.896},
      {"variant": "A11G G15U", "self-cleavage": 0.857},
      {"variant": "A11G G27C", "self-cleavage": 0.198},
      {"variant": "G13A U55A", "self-cleavage": 0.333},
      {"variant": "C12A A44U", "self-cleavage": 0.186},
      {"variant": "A11G C66U", "self-cleavage": 0.619},
      {"variant": "C12U U60A", "self-cleavage": 0.766},
      {"variant": "C12A C38A", "self-cleavage": 0.18},
      {"variant": "A11U C38G", "self-cleavage": 0.128},
      {"variant": "C12G G29A", "self-cleavage": 0.138},
      {"variant": "C12G U60A", "self-cleavage": 0.748},
      {"variant": "C12G A28U", "self-cleavage": 0.57},
      {"variant": "C12G A28C", "self-cleavage": 0.561},
      {"variant": "A11G U55G", "self-cleavage": 0.223},
      {"variant": "C12A U55A", "self-cleavage": 0.288},
      {"variant": "A11G G32C", "self-cleavage": 0.0578},
      {"variant": "A11G U33G", "self-cleavage": 0.131},
      {"variant": "A11U A49G", "self-cleavage": 0.558},
      {"variant": "A11U G68U", "self-cleavage": 0.292},
      {"variant": "A11U G68C", "self-cleavage": 0.13},
      {"variant": "C12A C50U", "self-cleavage": 0.399},
      {"variant": "C12G A59C", "self-cleavage": 0.076},
      {"variant": "C12A G51A", "self-cleavage": 0.898},
      {"variant": "A11U A24C", "self-cleavage": 0.211},
      {"variant": "A11U A64G", "self-cleavage": 0.588},
      {"variant": "A11U A64U", "self-cleavage": 0.152},
      {"variant": "A11U A64C", "self-cleavage": 0.175},
      {"variant": "C12U C48A", "self-cleavage": 0.107},
      {"variant": "C12U A64G", "self-cleavage": 0.564},
      {"variant": "C12U A64U", "self-cleavage": 0.241},
      {"variant": "C12G A61C", "self-cleavage": 0.24},
      {"variant": "C12U A44C", "self-cleavage": 0.184},
      {"variant": "C12A U63A", "self-cleavage": 0.102},
      {"variant": "C12A U63G", "self-cleavage": 0.213},
      {"variant": "C12G U70C", "self-cleavage": 0.699},
      {"variant": "C12G A31G", "self-cleavage": 0.455},
      {"variant": "C12G A31U", "self-cleavage": 0.152},
      {"variant": "A11U G27C", "self-cleavage": 0.184},
      {"variant": "C12A G32C", "self-cleavage": 0.0893},
      {"variant": "A11U G51A", "self-cleavage": 0.799},
      {"variant": "A11U G51U", "self-cleavage": 0.805},
      {"variant": "G13A G15A", "self-cleavage": 0.839},
      {"variant": "C12G A39U", "self-cleavage": 0.32},
      {"variant": "C12G G54C", "self-cleavage": 0.246},
      {"variant": "C12G G54U", "self-cleavage": 0.537},
      {"variant": "C12A G54A", "self-cleavage": 0.485},
      {"variant": "C12G U20G", "self-cleavage": 0.798},
      {"variant": "G13A A59U", "self-cleavage": 0.241},
      {"variant": "G13A A59C", "self-cleavage": 0.196},
      {"variant": "A11U G57C", "self-cleavage": 0.182},
      {"variant": "C12G G13U", "self-cleavage": 0.561},
      {"variant": "C12G G13C", "self-cleavage": 0.944},
      {"variant": "C12G A45U", "self-cleavage": 0.116},
      {"variant": "C12G U52A", "self-cleavage": 0.922},
      {"variant": "C12U A61C", "self-cleavage": 0.24},
      {"variant": "G13A G40C", "self-cleavage": 0.152},
      {"variant": "C12A A30G", "self-cleavage": 0.206},
      {"variant": "C12A A30U", "self-cleavage": 0.172},
      {"variant": "C12U A23U", "self-cleavage": 0.807},
      {"variant": "C12U A23G", "self-cleavage": 0.965},
      {"variant": "A11U C66A", "self-cleavage": 0.139},
      {"variant": "A11U A22G", "self-cleavage": 0.755},
      {"variant": "A11G G69C", "self-cleavage": 0.267},
      {"variant": "C12A A31U", "self-cleavage": 0.104},
      {"variant": "A11G G57A", "self-cleavage": 0.159},
      {"variant": "A11G G57U", "self-cleavage": 0.392},
      {"variant": "A11U A28G", "self-cleavage": 0.929},
      {"variant": "G13A C18U", "self-cleavage": 1.1},
      {"variant": "G13A C18G", "self-cleavage": 0.761},
      {"variant": "A11G G40A", "self-cleavage": 0.291},
      {"variant": "A11G G40C", "self-cleavage": 0.188},
      {"variant": "C12A U52C", "self-cleavage": 0.768},
      {"variant": "C12A U52A", "self-cleavage": 0.763},
      {"variant": "A11U G54U", "self-cleavage": 0.565},
      {"variant": "C12U G27U", "self-cleavage": 0.199},
      {"variant": "C12G A35C", "self-cleavage": 0.74},
      {"variant": "C12G A35U", "self-cleavage": 0.731},
      {"variant": "A11U A35C", "self-cleavage": 0.86},
      {"variant": "A11U A35G", "self-cleavage": 0.867},
      {"variant": "A11U G34A", "self-cleavage": 1.13},
      {"variant": "A11U G34C", "self-cleavage": 1.43},
      {"variant": "C12U A36C", "self-cleavage": 0.674},
      {"variant": "C12U A26G", "self-cleavage": 0.796},
      {"variant": "C12U A26C", "self-cleavage": 0.481},
      {"variant": "C12U A26U", "self-cleavage": 0.591},
      {"variant": "C12U A71G", "self-cleavage": 0.797},
      {"variant": "C12A A39C", "self-cleavage": 0.397},
      {"variant": "A11U G21U", "self-cleavage": 0.915},
      {"variant": "A11U G21A", "self-cleavage": 0.586},
      {"variant": "C12U G68U", "self-cleavage": 0.27},
      {"variant": "C12U G68A", "self-cleavage": 0.259},
      {"variant": "C12A C65U", "self-cleavage": 0.309},
      {"variant": "C12U G19A", "self-cleavage": 1.02},
      {"variant": "C12A C18G", "self-cleavage": 0.872},
      {"variant": "C12A C18U", "self-cleavage": 0.834},
      {"variant": "C12U A28G", "self-cleavage": 1.19},
      {"variant": "C12U A28U", "self-cleavage": 0.583},
      {"variant": "C12U A28C", "self-cleavage": 0.437},
      {"variant": "C12U G32U", "self-cleavage": 0.082},
      {"variant": "A11U A43U", "self-cleavage": 0.078},
      {"variant": "C12G U55C", "self-cleavage": 0.216},
      {"variant": "C12G U55G", "self-cleavage": 0.322},
      {"variant": "A11G G42C", "self-cleavage": 0.322},
      {"variant": "A11G G42U", "self-cleavage": 0.314},
      {"variant": "A11G G42A", "self-cleavage": 0.201},
      {"variant": "C12A G42A", "self-cleavage": 0.168}
    ]}
  ]
}
